The supplement of paper PMC7877785
± gives the uncertainty stated by the source.

Experiment: self-splicing fitness, log relative to wild type (ln ratio); higher = more splicing; Tetrahymena group I intron in knt gene, E. coli kanamycin selection, DiMSum; sequences stand for … in CUCUCU…GGAGGGAAAAGUUAUCAGGCAUGCACCUGGUAGCUAGUCUUUAAACCAAUAGAUUGCAUCGGUUUAAAAGGCAAGACCGUCAAAUUGCGGGAAAGGGGUCAACAGCCGUUCAGUACCAAGUCUCAGGGGAAACUUUGAGAUGGCCUUGCAAAGGGUAUGGUAAUAAGCUGACGGACAUGGUCCUAACCACGCAGCCAAGUCCUAAGUCAACAGAUCUUCUGUUGAUAUGGAUGCAGUUCACAGACUAAAUGUCGGUCGGGGAAGAUGUAUUCUUCUCAUAAGAUAUAGUCGGACCUCUCCUUAAUGGGAGCUAGCGGAUGAAGUGAUGCAACACUGGAGCCGCUGGGAACUAAUUUGUAUGCGAAAGUAUAUUGAUUAGUUUUGGAGUACUCGUGGUCG
In short: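 The eight P1ex-region nucleotides of an intron in the knt kanamycin-resistance gene on pET-22b(+) were all randomised and the library put into E. coli BL21(DE3). Six replicate transformations were grown overnight at 37°C or 30°C on LB agar with or without 25 μg/mL kanamycin, together with 100 μg/mL carbenicillin, 50 μM IPTG and 0.2% rhamnose. Colonies were pooled and amplicon-sequenced on an Illumina HiSeq 2500. Fitness from DiMSum is the error-weighted combination of wild-type-normalised replicate fold changes, kanamycin over none.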

For CGCAAGCAAUAUUACGAUUC, which “self-splicing fitness (ln)” value (30 °C) is on record?
Its value is -3.18 ± 0.18.

What about the “self-splicing fitness (ln)” value (37 °C) of the same sequence?
The value was -2.17 ± 0.15.

For CGCAAGCAAUAUUACGCAGA, which “self-splicing fitness (ln)” value (30 °C) is on record?
The value was -2.26 ± 0.15.

What about the “self-splicing fitness (ln)” value (37 °C) of the same sequence?
The value was -1.78 ± 0.16.

For CGCAAGCAAUAUUACGCAGG, which “self-splicing fitness (ln)” value (30 °C) is on record?
Its value is -2.74 ± 0.12.

And the “self-splicing fitness (ln)” value (37 °C)?
The value was -1.01 ± 0.12.

With CGCAAGCAAUAUUACGCCGA as the sequence, how does the “self-splicing fitness (ln)” value (30 °C) read?
The value was -2.85 ± 0.26.

And the “self-splicing fitness (ln)” value (37 °C)?
The value was -2 ± 0.18.

For CGCAAGCAAUAUUACGCCGG, which “self-splicing fitness (ln)” value (30 °C) is on record?
Its value is -0.626 ± 0.12.

What about the “self-splicing fitness (ln)” value (37 °C) of the same sequence?
Its value is -0.476 ± 0.17.

Which results are given for CGCAAGCAAUAUUACGCGCG?
self-splicing fitness (ln) (30 °C): -3.11 ± 0.12; self-splicing fitness (ln) (37 °C): -2.51 ± 0.16

Which “self-splicing fitness (ln)” value (30 °C) does the source give for CGCAAGCAAUAUUACGGACC here?
Its value is -1.72 ± 0.1.

And the “self-splicing fitness (ln)” value (37 °C)?
The value was -0.3 ± 0.14.

Which “self-splicing fitness (ln)” value (30 °C) does the source give for CGCAAGCAAUAUUACGGCUC here?
Its value is -1.94 ± 0.14.

And the “self-splicing fitness (ln)” value (37 °C)?
The value was -1.43 ± 0.15.

Which “self-splicing fitness (ln)” value (30 °C) does the source give for CGCAAGCAAUAUUACGGUUC here?
The value was -4.01 ± 0.23.

And the “self-splicing fitness (ln)” value (37 °C)?
The value was -2.6 ± 0.16.

Which “self-splicing fitness (ln)” value (30 °C) does the source give for CGCAAGCAAUAUUACGGUUU here?
The value was -2.95 ± 0.17.

What about the “self-splicing fitness (ln)” value (37 °C) of the same sequence?
Its value is -2.53 ± 0.18.

Which “self-splicing fitness (ln)” value (30 °C) does the source give for CGCAAGCAAUAUUACGUCGG here?
The value was -0.371 ± 0.061.

What about the “self-splicing fitness (ln)” value (37 °C) of the same sequence?
Its value is -0.192 ± 0.089.

For CGCAAGCAAUAUUACGUGCC, which “self-splicing fitness (ln)” value (30 °C) is on record?
Its value is -0.772 ± 0.073.

And the “self-splicing fitness (ln)” value (37 °C)?
Its value is -1.13 ± 0.11.

With CGCAAGCAAUAUUACGUUAU as the sequence, how does the “self-splicing fitness (ln)” value (30 °C) read?
Its value is -3.78 ± 0.24.

And the “self-splicing fitness (ln)” value (37 °C)?
Its value is -2.44 ± 0.14.

With CGCAAGCAAUAUUACGUUCC as the sequence, how does the “self-splicing fitness (ln)” value (30 °C) read?
The value was -2.95 ± 0.15.

And the “self-splicing fitness (ln)” value (37 °C)?
The value was -1.06 ± 0.12.

What does the source list for CGCAAGCAAUAUUACGUUUU?
self-splicing fitness (ln) (30 °C): -4.46 ± 0.15; self-splicing fitness (ln) (37 °C): -2.83 ± 0.16

For CGCCAGCAAUAUUACGAAUC, which “self-splicing fitness (ln)” value (30 °C) is on record?
The value was -2.75 ± 0.16.

And the “self-splicing fitness (ln)” value (37 °C)?
Its value is -2.92 ± 0.26.

With CGCCAGCAAUAUUACGACAU as the sequence, how does the “self-splicing fitness (ln)” value (30 °C) read?
The value was -3.741 ± 0.023.

What about the “self-splicing fitness (ln)” value (37 °C) of the same sequence?
The value was -2.75 ± 0.038.

For CGCCAGCAAUAUUACGACGA, which “self-splicing fitness (ln)” value (30 °C) is on record?
The value was -2.77 ± 0.15.

What about the “self-splicing fitness (ln)” value (37 °C) of the same sequence?
The value was -1.48 ± 0.14.

What does the source list for CGCCAGCAAUAUUACGACUU?
self-splicing fitness (ln) (30 °C): -3.35 ± 0.2; self-splicing fitness (ln) (37 °C): -1.82 ± 0.18

For CGCCAGCAAUAUUACGAGAC, which “self-splicing fitness (ln)” value (30 °C) is on record?
The value was -3.23 ± 0.33.

What about the “self-splicing fitness (ln)” value (37 °C) of the same sequence?
Its value is -3.54 ± 0.46.

Which results are given for CGCCAGCAAUAUUACGAGAG?
self-splicing fitness (ln) (30 °C): -3.58 ± 0.13; self-splicing fitness (ln) (37 °C): -1.37 ± 0.098

Which results are given for CGCCAGCAAUAUUACGAGCG?
self-splicing fitness (ln) (30 °C): -2.66 ± 0.17; self-splicing fitness (ln) (37 °C): -2.56 ± 0.23

For CGCCAGCAAUAUUACGAGUU, which “self-splicing fitness (ln)” value (30 °C) is on record?
Its value is -3.19 ± 0.15.

And the “self-splicing fitness (ln)” value (37 °C)?
Its value is -3.16 ± 0.2.

With CGCCAGCAAUAUUACGAUCC as the sequence, how does the “self-splicing fitness (ln)” value (30 °C) read?
The value was -3.12 ± 0.37.

For CGCCAGCAAUAUUACGAUCU, which “self-splicing fitness (ln)” value (30 °C) is on record?
The value was -2.5 ± 0.26.

What about the “self-splicing fitness (ln)” value (37 °C) of the same sequence?
Its value is -2.42 ± 0.35.

Which “self-splicing fitness (ln)” value (30 °C) does the source give for CGCCAGCAAUAUUACGCCAG here?
The value was -0.963 ± 0.12.

And the “self-splicing fitness (ln)” value (37 °C)?
Its value is -0.172 ± 0.15.

For CGCCAGCAAUAUUACGCUAU, which “self-splicing fitness (ln)” value (30 °C) is on record?
The value was -3.43 ± 0.15.

And the “self-splicing fitness (ln)” value (37 °C)?
The value was -3.01 ± 0.21.

Which results are given for CGCCAGCAAUAUUACGGCAA?
self-splicing fitness (ln) (30 °C): -0.604 ± 0.087; self-splicing fitness (ln) (37 °C): -0.186 ± 0.088

For CGCCAGCAAUAUUACGGCAC, which “self-splicing fitness (ln)” value (30 °C) is on record?
Its value is -2.37 ± 0.1.

What about the “self-splicing fitness (ln)” value (37 °C) of the same sequence?
Its value is -1.04 ± 0.097.

For CGCCAGCAAUAUUACGGGGU, which “self-splicing fitness (ln)” value (30 °C) is on record?
The value was -3.35 ± 0.15.

And the “self-splicing fitness (ln)” value (37 °C)?
The value was -2.36 ± 0.17.

What does the source list for CGCCAGCAAUAUUACGGUAA?
self-splicing fitness (ln) (30 °C): -0.8 ± 0.069; self-splicing fitness (ln) (37 °C): 0.0236 ± 0.072

What does the source list for CGCCAGCAAUAUUACGGUAU?
self-splicing fitness (ln) (30 °C): -2.65 ± 0.088; self-splicing fitness (ln) (37 °C): -0.699 ± 0.1

Which “self-splicing fitness (ln)” value (30 °C) does the source give for CGCCAGCAAUAUUACGUAGA here?
Its value is -1.25 ± 0.086.

And the “self-splicing fitness (ln)” value (37 °C)?
Its value is -1.18 ± 0.13.

Which results are given for CGCCAGCAAUAUUACGUCAA?
self-splicing fitness (ln) (30 °C): -2.51 ± 0.17; self-splicing fitness (ln) (37 °C): -2.32 ± 0.17

What does the source list for CGCCAGCAAUAUUACGUCAU?
self-splicing fitness (ln) (30 °C): -4.39 ± 0.19; self-splicing fitness (ln) (37 °C): -3.12 ± 0.18

Which “self-splicing fitness (ln)” value (30 °C) does the source give for CGCCAGCAAUAUUACGUCUC here?
The value was -4.51 ± 0.23.

And the “self-splicing fitness (ln)” value (37 °C)?
The value was -2.45 ± 0.16.

With CGCCAGCAAUAUUACGUGAC as the sequence, how does the “self-splicing fitness (ln)” value (30 °C) read?
The value was -3.64 ± 0.32.

And the “self-splicing fitness (ln)” value (37 °C)?
Its value is -2.96 ± 0.33.

Which results are given for CGCCAGCAAUAUUACGUGCC?
self-splicing fitness (ln) (30 °C): -1.13 ± 0.091; self-splicing fitness (ln) (37 °C): -0.673 ± 0.11

Which results are given for CGCGAGCAAUAUUACGACCU?
self-splicing fitness (ln) (30 °C): -0.582 ± 0.16; self-splicing fitness (ln) (37 °C): -1.81 ± 0.21

What does the source list for CGCGAGCAAUAUUACGAUCU?
self-splicing fitness (ln) (30 °C): -3.42 ± 0.21; self-splicing fitness (ln) (37 °C): -1.66 ± 0.14

What does the source list for CGCGAGCAAUAUUACGCCAG?
self-splicing fitness (ln) (30 °C): -2.74 ± 0.18; self-splicing fitness (ln) (37 °C): -2.75 ± 0.24

Which results are given for CGCGAGCAAUAUUACGCCCU?
self-splicing fitness (ln) (30 °C): -3.1 ± 0.29; self-splicing fitness (ln) (37 °C): -2.5 ± 0.39

With CGCGAGCAAUAUUACGCGUC as the sequence, how does the “self-splicing fitness (ln)” value (30 °C) read?
The value was -3.67 ± 0.28.

What about the “self-splicing fitness (ln)” value (37 °C) of the same sequence?
The value was -2.68 ± 0.22.

For CGCGAGCAAUAUUACGGACG, which “self-splicing fitness (ln)” value (37 °C) is on record?
Its value is -1.75 ± 0.42.

For CGCGAGCAAUAUUACGGCAG, which “self-splicing fitness (ln)” value (30 °C) is on record?
Its value is -0.761 ± 0.1.

And the “self-splicing fitness (ln)” value (37 °C)?
Its value is -0.243 ± 0.13.

What does the source list for CGCGAGCAAUAUUACGGCUG?
self-splicing fitness (ln) (30 °C): -0.795 ± 0.094; self-splicing fitness (ln) (37 °C): -0.637 ± 0.13

With CGCGAGCAAUAUUACGGGGG as the sequence, how does the “self-splicing fitness (ln)” value (30 °C) read?
The value was -3.45 ± 0.38.

And the “self-splicing fitness (ln)” value (37 °C)?
Its value is -3.07 ± 0.32.

With CGCGAGCAAUAUUACGUACC as the sequence, how does the “self-splicing fitness (ln)” value (37 °C) read?
The value was -2.69 ± 0.35.
